Source: patent publication US20160355836
Residue numbers refer to the chain shown, from its start.

What was measured:
[1] = system: T1, GST-PT8-CTS517 (not phosphorylated)
T1 sequence: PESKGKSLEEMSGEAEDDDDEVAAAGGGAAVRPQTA

GST-PT8-CTS517A = system: T2, GST-PT8-CTS517A
T2 sequence: T1 sequence with S12A

GST-PT8-CTS512A = system: T3, GST-PT8-CTS512A
T3 sequence: T1 sequence with S7A

## GST-CK2α3
[1]
  in vitro phosphorylation assay ([γ-32P]ATP): the PT8-CT was phosphorylated by the catalytic subunit CK2 α3
GST-PT8-CTS517A
  in vitro phosphorylation assay ([γ-32P]ATP): Mutation of S517, but not S512, prevented phosphorylation of PT8-CT
GST-PT8-CTS512A
  in vitro phosphorylation assay ([γ-32P]ATP): Mutation of S517, but not S512, prevented phosphorylation of PT8-CT
